# Results from patent US20220169997.
# What was measured:
# [1] = tested on: PR402: SP(HSA)-PTEN-L-HSA-6xHis
# [2] = tested on: PR407: SP(HSA)-PTEN-L-cathepsin B*-HSA-6xHis
# [3] = tested on: PR408: SP(HSA)-PTEN-L-cathepsinB**-HSA-6xHis
# [4] = tested on: PR405: SP(HSA)-PTEN-L-MMP2/9-HSA-6xHis
# [5] = tested on: PR406: SP(HSA)-PTEN-L-cathepsin B-HSA-6xHis
# Chain of Recombinant active MMP2 protease (Enzo cat. #BML-SE237-0010) (chain, as listed by the source): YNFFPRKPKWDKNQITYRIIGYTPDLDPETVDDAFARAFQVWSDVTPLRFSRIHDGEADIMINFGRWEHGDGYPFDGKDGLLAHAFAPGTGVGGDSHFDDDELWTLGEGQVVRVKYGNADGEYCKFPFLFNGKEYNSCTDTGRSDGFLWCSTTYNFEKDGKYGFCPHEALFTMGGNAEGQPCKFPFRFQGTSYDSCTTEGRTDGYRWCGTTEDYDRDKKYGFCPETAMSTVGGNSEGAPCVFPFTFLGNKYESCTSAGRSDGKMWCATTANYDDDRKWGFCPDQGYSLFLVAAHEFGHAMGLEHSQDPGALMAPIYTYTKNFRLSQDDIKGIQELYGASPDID
substance,measurement,setting,value
Recombinant active MMP2 protease (Enzo cat. #BML-SE237-0010),"in vitro cleavage of the fusion in CHO-3E7 supernatant, WB with F-1 anti-PTEN (no cleavage)",[1],PR402 was not appreciably cleaved by either recombinant MMP2 or CATSB
same,"in vitro cleavage of the fusion in CHO-3E7 supernatant, WB with F-1 anti-PTEN (no cleavage)",[2],MMP2 did however cleave its consensus site (SEQ ID NO:165) on PR405 only
same,"in vitro cleavage of the fusion in CHO-3E7 supernatant, WB with F-1 anti-PTEN (no cleavage)",[3],MMP2 did however cleave its consensus site (SEQ ID NO:165) on PR405 only
same,"in vitro cleavage of the fusion in CHO-3E7 supernatant (20 nM MMP2, 0/4/21 h), WB with F-1 anti-PTEN",[4],MMP2 did however cleave its consensus site (SEQ ID NO:165) on PR405 only; this cleavage released a PTEN-L-like fragment (˜70 KDa)
same,"in vitro cleavage of the fusion in CHO-3E7 supernatant, WB with F-1 anti-PTEN (no cleavage)",[5],MMP2 did however cleave its consensus site (SEQ ID NO:165) on PR405 only
Active CATSB (BioVision #7580-5),"in vitro cleavage of the fusion in CHO-3E7 supernatant, WB with F-1 anti-PTEN (no cleavage)",[1],PR402 was not appreciably cleaved by either recombinant MMP2 or CATSB
same,"in vitro cleavage of the fusion in CHO-3E7 supernatant (0.3 µg/ml CATSB), WB with F-1 anti-PTEN (no cleavage)",[4],PR405 (SEQ ID NO:129; cDNA SEQ ID NO:157) was not cleaved by CATSB
same,"in vitro cleavage of the fusion in CHO-3E7 supernatant (0.3 µg/ml CATSB), WB with F-1 anti-PTEN (no cleavage)",[5],though it did not cleave PR406 (SEQ ID NO:130; cDNA SEQ ID NO:158)
